Test [1] has as its target HLA-A*11:01. As to the kind of experiment: IEDB peptide-MHC binding, purified MHC/competitive/fluorescence; ≥ and ≤ were set here for values at or beyond the usual limits of such assays.
In test [2] the target is HLA-A*02:01. The description is as above. The note with it: source organism: Sudan ebolavirus.
For test [3], the target named is HLA-A*24:02. The description is as above. The note with it: source organism: Sudan ebolavirus.
The target in test [4] is HLA-A*02:17. As to the kind of experiment: IEDB peptide-MHC binding, purified MHC/competitive/radioactivity; filed as Kd, often an IC50 or EC50 that approximates it; ≥ and ≤ were set here for values at or beyond the usual limits of such assays.
Test [5] concerns the target HLA-A*02:06. Described as above.
Test [6] has as its target HLA-A*02:03. The test is described as above.
Test [7] has as its target HLA-A*02:01. The description is as above.
Test [8] has as its target HLA-A*26:01. The experiment in a line: IEDB peptide-MHC binding, purified MHC/competitive/fluorescence; filed as Kd, often an IC50 or EC50 that approximates it; ≥ and ≤ were set here for values at or beyond the usual limits of such assays.
Test [9] addresses HLA-A*69:01. The description is as above.
The target in test [10] is HLA-B*15:17. The description is as above.
For test [11], the target named is HLA-B*27:03. The test is described as above.
Test [12] concerns the target HLA-B*51:01. Described as above.
In test [13] the target is HLA-B*46:01. Described as above.
Test [14] has as its target HLA-B*15:01. Described as above. The note with it: source organism: Homo sapiens.
Test [15] concerns the target HLA-B*39:01. The description is as above.
In test [16] the target is HLA-B*18:01. The test is described as above.
The target of test [17] is HLA-B*57:01. The test is described as above.
Test [18] addresses HLA-A*02:01. As to the kind of experiment: IEDB peptide-MHC binding, purified MHC/direct/fluorescence; filed as Kd, often an IC50 or EC50 that approximates it; ≥ and ≤ were set here for values at or beyond the usual limits of such assays. The note with it: source organism: Tetraodon nigroviridis.
Test [19] addresses HLA-A*68:02. As to the kind of experiment: IEDB peptide-MHC binding, purified MHC/competitive/radioactivity; filed as Kd, often an IC50 or EC50 that approximates it; ≥ and ≤ were set here for values at or beyond the usual limits of such assays.
The target of test [20] is HLA-B*15:09. The experiment in a line: IEDB peptide-MHC binding, purified MHC/direct/fluorescence; filed as Kd, often an IC50 or EC50 that approximates it; ≥ and ≤ were set here for values at or beyond the usual limits of such assays. The note with it: source organism: Burkholderia mallei ATCC 23344.
The target of test [21] is HLA-B*08:01. The experiment in a line: IEDB peptide-MHC binding, purified MHC/competitive/radioactivity; filed as Kd, often an IC50 or EC50 that approximates it; ≥ and ≤ were set here for values at or beyond the usual limits of such assays. The note with it: source organism: Dengue virus 3 Singapore/8120/1995.
Test [22] concerns the target HLA-A*31:01. The experiment in a line: IEDB peptide-MHC binding, purified MHC/competitive/fluorescence; filed as Kd, often an IC50 or EC50 that approximates it; ≥ and ≤ were set here for values at or beyond the usual limits of such assays.
In test [23] the target is HLA-A*11:01. As to the kind of experiment: IEDB peptide-MHC binding, purified MHC/direct/fluorescence; filed as Kd, often an IC50 or EC50 that approximates it; ≥ and ≤ were set here for values at or beyond the usual limits of such assays.
The target of test [24] is HLA-A*03:01. The description is as above.
Test [25] has as its target HLA-A*03:01. As to the kind of experiment: IEDB peptide-MHC binding, purified MHC/competitive/fluorescence; filed as Kd, often an IC50 or EC50 that approximates it; ≥ and ≤ were set here for values at or beyond the usual limits of such assays.
Test [26] has as its target HLA-A*02:01. The test is described as above. The note with it: source organism: Escherichia coli 536.
The target of test [27] is HLA-B*45:06. The description is as above.
Test [28] has as its target HLA-B*83:01. The test is described as above. The note with it: source organism: human gammaherpesvirus 4.
Test [29] deals with HLA-B*15:42. Described as above.
Test [30] deals with HLA-A*68:01. As to the kind of experiment: IEDB peptide-MHC binding, purified MHC/competitive/radioactivity; filed as Kd, often an IC50 or EC50 that approximates it; ≥ and ≤ were set here for values at or beyond the usual limits of such assays. The note with it: source organism: Dengue virus 2 Jamaica/1409/1983.
Setting [31] is: source organism: Sudan ebolavirus.
Where [32] appears, read: source organism: Dengue virus 3 Sri Lanka/1266/2000.
[33] abbreviates: source organism: Dengue virus 3 Martinique/1243/1999.
The mark [34] stands for this setting: source organism: Dengue virus 3 China/80-2/1980.
Setting [35] is: source organism: Dengue virus 3 Singapore/8120/1995.
Setting [36] is: source organism: Influenza A virus (A/Viet Nam/HN/2004(H5N1)).
[37] abbreviates: source organism: Dengue virus 4 Philippines/H241/1956.
Where [38] appears, read: source organism: Dengue virus 2 Thailand/NGS-C/1944.
Where [39] appears, read: source organism: Dengue virus 2 Jamaica/1409/1983.
[40] abbreviates: source organism: Dengue virus 4 Dominica/814669/1981.
Setting [41] is: source organism: Dengue virus 1 Singapore/S275/1990.
[42] abbreviates: source organism: Dengue virus 1 Brazil/97-11/1997.
Where [43] appears, read: source organism: Bacillus cereus G9241.
[44] abbreviates: source organism: Escherichia coli 536.
[45] abbreviates: source organism: Influenza A virus (A/Memphis/1/1978(H1N1)).
The mark [46] stands for this setting: source organism: human gammaherpesvirus 4.
The mark [47] stands for this setting: source organism: Coxiella burnetii.
Where [48] appears, read: source organism: Yersinia pestis FV-1.
Setting [49] is: source organism: Yersinia pestis.
The mark [50] stands for this setting: source organism: West Nile virus.

pIC50, pKd: −log10 of the molar value.

The term pIC50 denotes −log10 of the IC50, conventionally taken in molar units. Read a high pIC50 as a small IC50. As usually defined, the pKd is −log10 of the Kd, conventionally taken in molar units.

For the sequence AIDFLLRRW, the negative-log IC50 (pIC50) in test [1] (setting [31]) is at most 3.81; in test [2], 4.26; in test [3] it was 4.41.
Turning to ALFSGVSWV, the pKd is 6.34 in [4] (setting [32]), 8.71 in [5] (setting [33]) and 9.44 in test [6] (setting [33]).
For the sequence ALFSGVSWVM, the pKd was 6.16 in test [4] (setting [32]) and 8.14 in [7] (setting [32]).
Sequence FGGFSTLDK had a pIC50 in [1] (source organism: Variola virus) of at most 4.11.
Regarding FMDPGIFPR, the negative logarithm of the Kd (pKd) in test [8] (source organism: Homo sapiens), in test [9] (source organism: Homo sapiens), in [10] (source organism: Homo sapiens), in test [11] (source organism: Homo sapiens), in [12] (source organism: Homo sapiens) and in test [13] (source organism: Homo sapiens) was at most 4.70 throughout. Moreover, the negative logarithm of the Kd (pKd) in test [14] was at most 4.70; in test [15] (source organism: Homo sapiens) it was at most 4.70; in [16] (source organism: Homo sapiens) it was at most 4.70; in [17] (source organism: Homo sapiens), at most 4.70; in [18] it was 8.00.
As to FVGKTVWFV, the negative-log Kd (pKd) is 7.54 in test [4] (setting [34]), 8.73 in [19] (setting [35]), 8.06 in test [5] (setting [35]) and 8.33 in test [7] (setting [34]).
In [20], GEELPTVVL gave a negative logarithm of the Kd (pKd) of at most 4.70.
In the case of GMLWMADVPL, the pKd in test [4] (setting [34]) is 7.19; in test [21], 5.85; in [7] (setting [34]), 8.31.
Turning to GTFGPVHFR, the pKd in test [22] (source organism: Influenza A virus H3N2) was at least 9.00; in test [23] (setting [36]), 8.80; in [24] (setting [36]), 7.59.
For ILGAQALPV, the pKd is 5.59 in test [4] (setting [37]) and 7.49 in test [7] (setting [37]).
For ISKSMRDQR, the negative logarithm of the IC50 (pIC50) in test [1] (source organism: Variola virus) is 4.63.
Take LILGAQALPV: the figures for the pKd in test [4] (setting [37]), in test [5] (setting [37]) and in [7] (setting [37]) were 6.32, 7.74 and 7.26, respectively.
Turning to LMMTTIGIV, the pKd was 6.74 in [4] (setting [38]), 8.23 in test [7] (setting [38]) and 9.05 in test [6] (source organism: Dengue virus 2 Peru/IQT2913/1996).
As to LQMEDKAWLV, the pKd in [4] (setting [39]) is 6.92; in test [5] (setting [39]), 8.57; in [7] (setting [39]) it was 8.44.
LSMGLITIAV: the pKd in test [4] (setting [40]) was 5.62; in [19] (setting [40]), 7.10; in test [5] (setting [40]) it was 7.52; in test [7] (setting [40]), 7.10.
Take LVISGVFPV: the pKd is 8.71 in test [4] (setting [39]); 9.43 in test [19] (setting [39]); 8.78 in [5] (setting [39]); 7.53 in test [7] (setting [39]); 7.85 in test [6] (setting [39]).
As to LVMAFIAFL, the negative-log Kd (pKd) in [4] (setting [41]) is 7.81; in test [19] (setting [42]), 7.68; in test [5] (setting [42]) it was 7.84; in [7] (setting [41]) it was 7.40.
Take MLLMLLPTAL: the negative logarithm of the Kd (pKd) in test [4] (setting [41]) was 7.11; in test [5] (setting [42]), 8.27; in test [7] (setting [41]) it was 7.78.
As to MLYDRINLR, the negative-log Kd (pKd) in [25] (setting [43]) was 7.97; in test [22] (setting [43]), 8.47.
In the case of RAMDVYCHR, the negative-log Kd (pKd) in [8] (setting [44]), in test [9] (setting [44]), in test [10] (setting [44]), in [11] (setting [44]), in test [26] and in test [12] (setting [44]) was at most 4.70 throughout. In addition, the pKd in [13] (setting [44]), in [15] (setting [44]), in test [16] (setting [44]) and in test [17] (setting [44]) was at most 4.70 throughout.
In the case of RLFKHGLKR, the negative logarithm of the Kd (pKd) in test [25] (setting [45]) is 8.10; in test [22] (setting [45]), 7.84.
In turn, SATKRWGFR had a pIC50 in [1] (setting [31]) of at most 3.93.
In the case of SIILEFFLMV, the pKd is 6.93 in [4] (setting [37]), 7.80 in test [5] (setting [42]) and 8.01 in [7] (setting [37]).
As to SQAAFGLPI, the negative-log Kd (pKd) is 6.22 in test [27] (setting [46]), at most 5.30 in [28] and at most 5.30 in test [29] (setting [46]).
In the case of SQIRRFNLR, the pKd is 8.99 in test [22] (source organism: Pseudomonas putida F1), 7.87 in test [23] (setting [47]) and 5.91 in test [24] (setting [47]).
On to SVQWFRLPR, for which the pKd in [27] (setting [48]) is at most 5.30; in test [29] (setting [48]) it was at most 5.30; in test [22] (setting [48]) it was at least 10.00; in test [23] (setting [49]), at least 9.00; in test [24] (setting [49]), 6.24.
Sequence TTPMMIQTR had a pIC50 in test [1] (source organism: Vaccinia virus) of 4.34.
Regarding TVNPIVTEK, the results for the negative logarithm of the Kd (pKd) in test [22] (source organism: dengue virus type 2), in test [23] (source organism: Dengue virus) and in [30] were 4.84, 8.64 and 7.58, respectively.
For VLRKRWTAK, the pKd in test [22] (setting [50]) is 7.23; in test [23] (setting [50]), at most 4.70.
